Residue numbers refer to the chain shown, from its start.
T1: I-CreI heterodimer HBB8.3_D3 / HBB8.4_A4 (Chlamydomonas reinhardtii, UniProt P05725;P05725 SEQ:1-167,SEQ:1-167)
T1 chain 1: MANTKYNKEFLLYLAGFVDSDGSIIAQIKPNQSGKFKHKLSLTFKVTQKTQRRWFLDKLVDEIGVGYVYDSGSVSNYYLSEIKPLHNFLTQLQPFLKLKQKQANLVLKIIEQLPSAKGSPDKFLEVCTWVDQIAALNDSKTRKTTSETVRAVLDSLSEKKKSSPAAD
T1 chain 2: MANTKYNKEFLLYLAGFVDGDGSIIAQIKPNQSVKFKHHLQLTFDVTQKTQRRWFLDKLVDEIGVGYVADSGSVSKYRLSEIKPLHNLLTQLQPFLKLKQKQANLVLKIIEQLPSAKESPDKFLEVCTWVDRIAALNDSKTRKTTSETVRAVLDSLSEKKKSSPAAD

T2: I-CreI heterodimer HBB8.3_C3 / HBB8.4_C4 (Chlamydomonas reinhardtii, UniProt P05725;P05725 SEQ:1-167,SEQ:1-167)
T2 chain 1: T1 chain 1 with S20G, G118E, I133V
T2 chain 2: T1 chain 2 with G20S, H39R, L88F, R132Q

T3: I-CreI heterodimer HBB8.3_J3 / HBB8.4_B4 (Chlamydomonas reinhardtii, UniProt P05725;P05725 SEQ:1-167,SEQ:1-167)
T3 chain 1: T1 chain 2 with N31Q, S33T, V34Y, H39R, Q41S, D45Q, K76N, R132Q
T3 chain 2: T1 chain 2 with G20S, V34T, H39R, L88F, R132Q

T4: I-CreI heterodimer HBB8.3_I3 / HBB8.4_A4 (Chlamydomonas reinhardtii, UniProt P05725;P05725 SEQ:1-167,SEQ:1-167)
T4 chain 1: T1 chain 1 with S20G, N31Q, S33T, G34Y, K39R, F55L, G118E
T4 chain 2: T1 chain 2

T5: I-CreI heterodimer HBB8.3_K3 / HBB8.4_B4 (Chlamydomonas reinhardtii, UniProt P05725;P05725 SEQ:1-167,SEQ:1-167)
T5 chain 1: T1 chain 1 with N31Q, S33T, G34Y, K39R, Y78I, G118E
T5 chain 2: T1 chain 2 with G20S, V34T, H39R, L88F, R132Q

T6: I-CreI heterodimer HBB8.3_B3 / HBB8.4_C4 (Chlamydomonas reinhardtii, UniProt P05725;P05725 SEQ:1-167,SEQ:1-167)
T6 chain 1: T1 chain 1 with S20G, N31Q, S33T, G34Y, K39R, V106A, G118E, L153Q
T6 chain 2: T1 chain 2 with G20S, H39R, L88F, R132Q

T7: I-CreI heterodimer HBB8.3_D3 / HBB8.4_D4 (Chlamydomonas reinhardtii, UniProt P05725;P05725 SEQ:1-167,SEQ:1-167)
T7 chain 1: T1 chain 1
T7 chain 2: T1 chain 2 with R132Q

T8: I-CreI heterodimer HBB8.3_A3 / HBB8.4_C4 (Chlamydomonas reinhardtii, UniProt P05725;P05725 SEQ:1-167,SEQ:1-167)
T8 chain 1: T1 chain 2 with N31Q, S33T, V34Y, H39R, Q41S, D45Q, L59Q, K76N, R132Q
T8 chain 2: T1 chain 2 with G20S, H39R, L88F, R132Q

T9: I-CreI heterodimer HBB8.3_C3 / HBB8.4_D4 (Chlamydomonas reinhardtii, UniProt P05725;P05725 SEQ:1-167,SEQ:1-167)
T9 chain 1: T1 chain 1 with S20G, G118E, I133V
T9 chain 2: T1 chain 2 with R132Q

T10: I-CreI heterodimer HBB8.3_I3 / HBB8.4_D4 (Chlamydomonas reinhardtii, UniProt P05725;P05725 SEQ:1-167,SEQ:1-167)
T10 chain 1: T1 chain 1 with S20G, N31Q, S33T, G34Y, K39R, F55L, G118E
T10 chain 2: T1 chain 2 with R132Q

T11: I-CreI heterodimer HBB8.3_J3 / HBB8.4_C4 (Chlamydomonas reinhardtii, UniProt P05725;P05725 SEQ:1-167,SEQ:1-167)
T11 chain 1: T1 chain 2 with N31Q, S33T, V34Y, H39R, Q41S, D45Q, K76N, R132Q
T11 chain 2: T1 chain 2 with G20S, H39R, L88F, R132Q

B1: HBB6 (dsDNA)
DNA 1: CTGACTCCTGAGGAGAAGTCTG
DNA 2: CAGACTTCTCCTCAGGAGTCAG
B2: HBB8 (dsDNA)
DNA 1: CTGACTCCTGTGGAGAAGTCTG
DNA 2: CAGACTTCTCCACAGGAGTCAG

Key:
Test in all cases: cell_activity; CHO extrachromosomal LacZ assay
[1] = target: T1, I-CreI heterodimer HBB8.3_D3 / HBB8.4_A4
[2] = target: T2, I-CreI heterodimer HBB8.3_C3 / HBB8.4_C4
[3] = target: T3, I-CreI heterodimer HBB8.3_J3 / HBB8.4_B4
[4] = target: T4, I-CreI heterodimer HBB8.3_I3 / HBB8.4_A4
[5] = target: T5, I-CreI heterodimer HBB8.3_K3 / HBB8.4_B4
[6] = target: T6, I-CreI heterodimer HBB8.3_B3 / HBB8.4_C4
[7] = target: T7, I-CreI heterodimer HBB8.3_D3 / HBB8.4_D4
[8] = target: T8, I-CreI heterodimer HBB8.3_A3 / HBB8.4_C4
[9] = target: T9, I-CreI heterodimer HBB8.3_C3 / HBB8.4_D4
[10] = target: T10, I-CreI heterodimer HBB8.3_I3 / HBB8.4_D4
[11] = target: T11, I-CreI heterodimer HBB8.3_J3 / HBB8.4_C4

Binder	activity [1]	activity [2]	activity [3]	activity [4]	activity [5]	activity [6]	activity [7]	activity [8]	activity [9]	activity [10]	activity [11]
B1	1.23 absorbance units	1.87 absorbance units	1.75 absorbance units	0.45 absorbance units	1.57 absorbance units	1.86 absorbance units	1.09 absorbance units	0.68 absorbance units	0.37 absorbance units	0.12 absorbance units	1.88 absorbance units
B2	1.53 absorbance units	2.62 absorbance units	2.47 absorbance units	1.15 absorbance units	2.06 absorbance units	2.32 absorbance units	2 absorbance units	1.56 absorbance units	0.72 absorbance units	1.57 absorbance units	2.21 absorbance units

From patent US20100229252, “MEGANUCLEASE VARIANTS CLEAVING A DNA TARGET SEQUENCE FROM THE HUMAN HEMOGLOBIN BETA GENE AND USES THEREOF” (CELLECTIS, published 2010)
